{
  "source": "the nanobody polyreactivity screen of Harvey et al. (2022)",
  "assay": "yeast display, Sf9 membrane polyspecificity reagent, FACS + sequencing; frameworks hold sequencing errors",
  "how_it_was_run": "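Nanobodies from a synthetic yeast display library (Saccharomyces cerevisiae BJ5465), induced 36–48 hours with galactose, were stained 1 hour at 4 °C with 10% biotinylated, detergent-solubilized Sf9 membrane reagent, enriched on streptavidin microbeads, then FACS-sorted. Anti-HA (expression) and streptavidin (reagent binding) fluorescence set low and high (top ~1%) gates. Polyreactivity labels come from the gate of origin. Genes were colony-PCR amplified, MiSeq 2 × 250 sequenced and filtered by CDR length.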",
  "data": [
    {"sequence": "QVQLVESGGGLVQAGGSLRLSCAASGRIFYSNAMGWYRQAPGKERELVAAISGSTDSTYYADSVKGRFTISRDNAKNTDYLQMNSVKPEDTAVYYCAAADYWFYYGYYLTMDFWGQGTQVTVSS", "values": [
      {"measurement": "polyreactivity (PSR sort gate)", "result": "low polyreactivity"}
    ]},
    {"sequence": "QVQLVESGGGLVQAGGSLRLSCAASGLTLTHYAMGWYRQAPGKERELVATISRSGGRTYYADSVKGRFTISRDNAKNTVYLQMNSLKPEDTAVYYCNAEYYYGRGWYDYWGQGTQVTVSS", "values": [
      {"measurement": "polyreactivity (PSR sort gate)", "result": "high polyreactivity"}
    ]},
    {"sequence": "QVQLVESGGGLVQAGGSLRLSCAASGSTFWYYAMGWYRQAPGKESELVAGITQSGGSTYYADSVKGRFTISRDNAKNTVYLQMNSLKPEDTAVYYCAKDGRVSGDFDYWGQGTQVTVSS", "values": [
      {"measurement": "polyreactivity (PSR sort gate)", "result": "low polyreactivity"}
    ]},
    {"sequence": "QVQLVESGGCLVQSGGSLRLSCAASGIIISSYAMGWYRQAPGKERELVADIRSGGSTNYADSVKGRFTISRDNAKNTVYLQMNSLKPEDTAVSDCNADTFQWWDSAAVYVIVKYGYWGHGTQVTVSS", "values": [
      {"measurement": "polyreactivity (PSR sort gate)", "result": "low polyreactivity"}
    ]},
    {"sequence": "QVQLVESGGGLVQAGGSLRLSCAASGLILGYYAMGWYRQAPGKERELVAAISSTGSTNYADSVKGRFTISRDNAKNTVYLQMNSLKPEDTAVYYCAAVPPRKDYQHMDYWGQGTQVTVSS", "values": [
      {"measurement": "polyreactivity (PSR sort gate)", "result": "low polyreactivity"}
    ]},
    {"sequence": "QVQLVESGGGLVQAGGSLRLSCAASGSTLFFNARGWYRQAPGKERELVAGITDGGNTNYADSVKGRFTISRDNAKNTVYLQMNSLKPEDTAVYYCNARYSKKGESQREYDYWGQGTQVTVSS", "values": [
      {"measurement": "polyreactivity (PSR sort gate)", "result": "low polyreactivity"}
    ]},
    {"sequence": "QYQLVESGGGLVQAGGSLRLSCAASGSTFRANTMGWYRQAPGKERELVSTITRGTITKYADSVKGRFTISRDNAKNPVYLQMNSLKAEDTAVFDCAVDQAYVRRNWGYTGYVTYDHWGQGTQVTVSS", "values": [
      {"measurement": "polyreactivity (PSR sort gate)", "result": "high polyreactivity"}
    ]},
    {"sequence": "QVQLVESGGGLVQAGGSLRLSCAASGRIFRPYAMGWYRQAPGKERELVASISWRGSSTYYADSVKGRFTISRDNAKNTVYLQMNSLKPEDTAVYYCAARPYTLAFYRYGYWGQGTQVTVSS", "values": [
      {"measurement": "polyreactivity (PSR sort gate)", "result": "high polyreactivity"}
    ]},
    {"sequence": "QVQLVESGGGLVQAAGSLPLSCAASGSTLLNYAMGWYRQAPGKQSQLVAAISSSGGRTYYADSVKGRFTISRDNAKNTVYLQMNSLKPEDTAVYYCNKGLGYPKTFGYWGQGTQVTVSS", "values": [
      {"measurement": "polyreactivity (PSR sort gate)", "result": "high polyreactivity"}
    ]},
    {"sequence": "QVQLVESGGGLVQAGGSLRLSCAASGSTFDYNAMGWYRQAPGKERELVAGISGGSSTNYADSVKGRFTISRDNAKNTVYLQMNSLKPEDTAVYYCNAQRLPLRYEMDYWGQGTQVTVSS", "values": [
      {"measurement": "polyreactivity (PSR sort gate)", "result": "low polyreactivity"}
    ]},
    {"sequence": "QVQLVESGGGLVQAGGSLRLSCAASGSIFVTNAMGWYRQAPGKERELVAAIRGGGGSTYYADSVKGRFTISRDNAKNTVYLQMNSLKPEDTAVYYCNADRRGYLQSEMDYWGQGTQVTVSS", "values": [
      {"measurement": "polyreactivity (PSR sort gate)", "result": "low polyreactivity"}
    ]},
    {"sequence": "QVQLVESGGGLVQAGGSLRLSCAASGNIFDRYAMGWYRQAPGKERELVAGITWSGGSTYYADSVKGRFTISRDNAKNTVYLQMNSLKPEDTAVYYCGEANYYWGHGTQVTVSS", "values": [
      {"measurement": "polyreactivity (PSR sort gate)", "result": "low polyreactivity"}
    ]},
    {"sequence": "QVQLVESGGGLVQAGGSLRLSCAASGFIFNRYTMGWYRQAPGKERELVAAITGRGGSTYYADSVKGRFSISRDNAKNTVYLQMNSLKPEDTAVYYCAAAPAYRYASYTYGYDSWGQGTQVTVSS", "values": [
      {"measurement": "polyreactivity (PSR sort gate)", "result": "high polyreactivity"}
    ]},
    {"sequence": "QVQLVESGGGLVQAGGSLRLSCAASGFTFWAYTMGWYRQAPGKERELVAAITRSGGRTYYADSVKGRFTISRDNAKNTVYLQLNSLKPEDTAVYYCAAKIWSKDEKHDYWGQGTQVTGSS", "values": [
      {"measurement": "polyreactivity (PSR sort gate)", "result": "high polyreactivity"}
    ]},
    {"sequence": "QVQLVESGGGLVQAGGSLLLSCAASGLTFRRYNMGWYRQAPGKERELVAAISYSGGSTYYADSVKGRFTISRDNAKNTVYLQMNSLKPEDTAVYYCNDRYARVKQYGYWGQGTQVTVSS", "values": [
      {"measurement": "polyreactivity (PSR sort gate)", "result": "low polyreactivity"}
    ]},
    {"sequence": "QVQLVESGGVLVQAGGSLRLSCAASGRSFDENSMGWYRQAPGKERELVAAITGGDSTNYADSVKGRFTISRDNAKNTVYLQMNSLKPEDTAVYYCAKDQERVTKGRFYLLEYYWGQGTQVTVSS", "values": [
      {"measurement": "polyreactivity (PSR sort gate)", "result": "low polyreactivity"}
    ]},
    {"sequence": "HVQLVDSGGGLVQAGGSLRLSCAASGRTFSHNAMGWYRQAPGKDRELVATITYGAGRTSYADSVKGRFTISRDNAKNTLYLQMNSLKPEDTAVYYCNADYFTYRGGEYRRYEYWGQGTQVTVST", "values": [
      {"measurement": "polyreactivity (PSR sort gate)", "result": "high polyreactivity"}
    ]}
  ]
}
